Values quoted from earlier work in publication PMC3772054.

Columns and labels:
IL-15Rα (Homo sapiens) = IL-15Rα (Homo sapiens) (UniProt Q13261)
IL-2Rα (Homo sapiens) = IL-2Rα (Homo sapiens) (UniProt P01589)
Chain of UniProt P01589 (P01589 22-240): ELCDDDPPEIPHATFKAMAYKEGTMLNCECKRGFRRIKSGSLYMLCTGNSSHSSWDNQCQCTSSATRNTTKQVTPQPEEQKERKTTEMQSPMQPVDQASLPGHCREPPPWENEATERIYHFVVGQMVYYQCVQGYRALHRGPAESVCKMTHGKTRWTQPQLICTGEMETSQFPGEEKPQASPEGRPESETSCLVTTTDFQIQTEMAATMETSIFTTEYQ

Chain of UniProt Q13261 (Q13261 31-205): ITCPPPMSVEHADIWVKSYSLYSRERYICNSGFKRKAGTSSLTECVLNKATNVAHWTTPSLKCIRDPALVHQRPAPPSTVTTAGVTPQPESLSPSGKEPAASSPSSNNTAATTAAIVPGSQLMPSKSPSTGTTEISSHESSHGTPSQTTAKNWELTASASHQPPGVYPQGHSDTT

Substance | Kd (IL-15Rα (Homo sapiens)) | Kd (IL-2Rα (Homo sapiens))
IL-15 (from UniProt P40933) | 0.038 nM | 
IL-2 (from UniProt P60568) |  | 4.8 nM
